Data set [1] deals with the molecule itself. The data set is described as follows: cryo-EM structure; eIF2αP/eIF2B complex: six-fold molar excess of eIF2αP added to purified eIF2B (GP5949), fractionated on Superose 6 in 20 mM Tris-HCl, 100 mM KCl, 1 mM TCEP, pH 7.5; core map 3.9 Å, lateral densities 8-18 Å; half-particles classified by localised reconstruction.
In data set [2] the target is T1, eIF2Bδ (subunit of eIF2B) (S. cerevisiae, UniProt P12754 1-651).
T1 construct: eIF2B delta subunit, S. cerevisiae; Stood in the assay as a subunit of the eIF2B decamer; also called eIF2B delta; source: S. cerevisiae strains GP5949 and GP7055, purified as part of Flag-eIF2B
T1 sequence: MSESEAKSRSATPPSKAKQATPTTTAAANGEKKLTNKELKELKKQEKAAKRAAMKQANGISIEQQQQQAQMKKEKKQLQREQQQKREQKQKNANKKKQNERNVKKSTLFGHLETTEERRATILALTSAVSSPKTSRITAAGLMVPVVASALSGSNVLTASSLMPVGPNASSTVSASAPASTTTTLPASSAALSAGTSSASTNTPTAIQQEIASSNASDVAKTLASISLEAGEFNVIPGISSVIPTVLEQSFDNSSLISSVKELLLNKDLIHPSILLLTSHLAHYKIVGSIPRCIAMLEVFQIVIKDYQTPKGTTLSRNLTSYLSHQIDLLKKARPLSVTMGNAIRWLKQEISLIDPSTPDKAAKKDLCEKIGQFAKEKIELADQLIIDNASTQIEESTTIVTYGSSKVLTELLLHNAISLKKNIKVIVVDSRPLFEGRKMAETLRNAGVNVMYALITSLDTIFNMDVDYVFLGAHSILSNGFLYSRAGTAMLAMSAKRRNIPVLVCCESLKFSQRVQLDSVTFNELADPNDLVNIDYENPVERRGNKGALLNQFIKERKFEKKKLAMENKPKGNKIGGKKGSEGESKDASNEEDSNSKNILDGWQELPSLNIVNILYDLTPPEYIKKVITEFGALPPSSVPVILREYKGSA
The data set is described as above. The following applies: both partners purified.

B1: eIF2Bα (subunit of eIF2B) (natural protein, S. cerevisiae)
chain: MSEFNITETYLRFLEEDTEMTMPIAAIEALVTLLRIKTPETAAEMINTIKSSTEELIKSIPNSVSLRAGCDIFMRFVLRNLHLYGDWENCKQHLIENGQLFVSRAKKSRNKIAEIGVDFIADDDIILVHGYSRAVFSLLNHAANKFIRFRCVVTESRPSKQGNQLYTLLEQKGIPVTLIVDSAVGAVIDKVDKVFVGAEGVAESGGIINLVGTYSVGVLAHNARKPFYVVTESHKFVRMFPLSSDDLPMAGPPLDFTRRTDDLEDALRGPTIDYTAQEYITALITDLGVLTPSAVSEELIKMWYD
notes: eIF2B alpha subunit, S. cerevisiae; Stood in the assay as a subunit of the eIF2B decamer; also called eIF2B alpha; source: S. cerevisiae strains GP5949 and GP7055, purified as part of Flag-eIF2B
As to B1, in data set [1], the binding result was “binds”.

B2: eIF2Bβ (subunit of eIF2B) (natural protein, S. cerevisiae)
chain: MSSQAFTSVHPNAATSDVNVTIDTFVAKLKRRQVQGSYAIALETLQLLMRFISAARWNHVNDLIEQIRDLGNSLEKAHPTAFSCGNVIRRILAVLRDEVEEDTMSTTVTSTSVAEPLISSMFNLLQKPEQPHQNRKNSSGSSSMKTKTDYRQVAIQGIKDLIDEIKNIDEGIQQIAIDLIHDHEILLTPTPDSKTVLKFLITARERSNRTFTVLVTEGFPNNTKNAHEFAKKLAQHNIETLVVPDSAVFALMSRVGKVIIGTKAVFVNGGTISSNSGVSSVCECAREFRTPVFAVAGLYKLSPLYPFDVEKFVEFGGSQRILPRMDPRKRLDTVNQITDYVPPENIDIYITNVGGFNPSFIYRIAWDNYKQIDVHLDKNKA
notes: eIF2B beta subunit, S. cerevisiae; Stood in the assay as a subunit of the eIF2B decamer; also called eIF2B beta; source: S. cerevisiae strains GP5949 and GP7055, purified as part of Flag-eIF2B
In the case of B2, the binding result in data set [2] was “binds”.
